Blank lines part the entries; values can stand above or below the molecule they belong to.
Tests used:
[1] = target: Anti-CRISPR protein AcrIIC2; experiment: AUC
[2] = target: Neisseria meningitidis Cas9 (NmeCas9), full length (Neisseria meningitidis) (UniProt C9X1G5); experiment: SEC + other: quantitative SDS-PAGE against standards
[3] = target: T1, NmeCas9 (Neisseria meningitidis, UniProt C9X1G5 1-1082); experiment: DRaCALA
T1 sequence: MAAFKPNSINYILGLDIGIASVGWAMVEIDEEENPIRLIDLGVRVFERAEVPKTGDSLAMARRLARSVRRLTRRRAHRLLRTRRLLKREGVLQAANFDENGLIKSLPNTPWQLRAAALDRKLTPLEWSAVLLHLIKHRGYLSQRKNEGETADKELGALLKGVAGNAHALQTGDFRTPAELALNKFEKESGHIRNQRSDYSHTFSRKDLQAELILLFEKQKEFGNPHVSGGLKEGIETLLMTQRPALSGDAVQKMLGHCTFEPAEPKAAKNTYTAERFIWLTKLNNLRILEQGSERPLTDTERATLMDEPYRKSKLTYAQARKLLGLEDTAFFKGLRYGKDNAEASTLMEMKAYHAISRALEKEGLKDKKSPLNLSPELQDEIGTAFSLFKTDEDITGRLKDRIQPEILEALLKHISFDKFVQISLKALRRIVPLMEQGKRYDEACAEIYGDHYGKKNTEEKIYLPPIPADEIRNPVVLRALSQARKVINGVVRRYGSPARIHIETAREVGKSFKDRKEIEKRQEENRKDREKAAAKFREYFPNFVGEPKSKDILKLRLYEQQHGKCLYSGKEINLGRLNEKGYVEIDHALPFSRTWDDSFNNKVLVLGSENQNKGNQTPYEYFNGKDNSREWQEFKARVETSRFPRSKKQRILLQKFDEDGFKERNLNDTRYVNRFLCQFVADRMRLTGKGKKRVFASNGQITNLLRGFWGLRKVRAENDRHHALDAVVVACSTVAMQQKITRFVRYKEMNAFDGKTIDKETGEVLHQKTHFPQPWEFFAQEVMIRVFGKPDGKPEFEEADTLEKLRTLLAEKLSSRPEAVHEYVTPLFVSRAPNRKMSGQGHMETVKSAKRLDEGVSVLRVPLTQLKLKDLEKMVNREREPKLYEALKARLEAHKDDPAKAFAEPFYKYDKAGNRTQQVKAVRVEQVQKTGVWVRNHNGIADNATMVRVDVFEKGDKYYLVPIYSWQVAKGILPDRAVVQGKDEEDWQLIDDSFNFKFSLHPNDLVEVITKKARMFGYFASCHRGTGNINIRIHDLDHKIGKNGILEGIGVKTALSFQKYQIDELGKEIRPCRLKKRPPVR

stoichiometry N [1]: 2
Molecule: Anti-CRISPR protein AcrIIC2 (natural protein)

stoichiometry N (AcrIIC3 per Cas9 (printed as 2:2)) [2]: 1
Molecule: Anti-CRISPR protein AcrIIC3 (natural protein)

B1: NmeCas9 sgRNA, 94 nt (binding assay) (structured_RNA)
RNA: GGCUCCUCAGAUGUAGUAUUCAGAGUUGUAGCUCCCUUUCUGAAAAGAACCGUUGCUACAAUAAGGCCGUCUGAAAAGAUGUGCCGCAACGCUC
Kd [3]: 1.66 nM
